Results as given in patent US20230183322A1 (published 2023).

Molecular target: spike protein (Spike, S protein) of SARS-CoV-2 (UniProt P0DTC2 14-1273)
Assay: SPR

B1: antigen-binding unit ABU-174 (antibody, V domains shown)
VH: QVQLQQWGAGLLKPSETLSLTCAVYGGSFSDYYWNWIRRPPGKGLEWIGEITHSGSTNYNPSLKSRVTISVDTSKNQFSLKLSSVTAADTAVYYCARGQGYGRVLLWFGEWGQGTLVTVSS
VL: EIVLTQSPATLSLSPGERATLSCRASQSVSTYLAWYQQKPGQAPRLLIYDASNRATGIPARFSGSGSGTDFTLTISSLEPEDFAVYYCQQRSNWITFGQGTRLEIK
In the case of B1, the Kd is reported as 285 pM.
